In patent publication US20160346368A1:

What was measured:
PVR-CD4TM-GFP (human) [1] = test: flow cytometry; HEK-293T cells transfected with PVR-CD4TM-GFP; CD226-Fc at 1 ug/ml; PE anti-human Fc
PVR-CD4TM-GFP (human) [2] = test: flow cytometry; HEK-293T cells transfected with PVR-CD4TM-GFP; CD226-Fc at 10 ug/ml; PE anti-human Fc
[3] = target: PVR S72N variant-CD4TM-GFP (human); test: flow cytometry; HEK-293T cells transfected with PVR S72N variant-CD4TM-GFP; CD226-Fc at 1 ug/ml; PE anti-human Fc
[4] = target: PVR S72N variant-CD4TM-GFP (human); test: flow cytometry; HEK-293T cells transfected with PVR S72N variant-CD4TM-GFP; CD226-Fc at 10 ug/ml; PE anti-human Fc
[5] = target: PVR Q82K variant-CD4TM-GFP (human); test: flow cytometry; HEK-293T cells transfected with PVR Q82K variant-CD4TM-GFP; CD226-Fc at 1 ug/ml (heading of FIG. 8A); PE anti-human Fc
[6] = target: PVR Q82K variant-CD4TM-GFP (human); test: flow cytometry; HEK-293T cells transfected with PVR Q82K variant-CD4TM-GFP; CD226-Fc at 10 ug/ml (heading of FIG. 8A); PE anti-human Fc
[7] = target: PVR Q82K+S72N double variant-CD4TM-GFP (human); test: flow cytometry; HEK-293T cells transfected with PVR Q82K+S72N double variant-CD4TM-GFP; CD226-Fc at 1 ug/ml (heading of FIG. 8A); PE anti-human Fc
[8] = target: PVR Q82K+S72N double variant-CD4TM-GFP (human); test: flow cytometry; HEK-293T cells transfected with PVR Q82K+S72N double variant-CD4TM-GFP; CD226-Fc at 10 ug/ml (heading of FIG. 8A); PE anti-human Fc
[9] = target: PVR S72N variant-CD4TM-GFP (human); test: flow cytometry; HEK-293T cells transfected with PVR S72N variant-CD4TM-GFP; PE anti-human Fc
[10] = target: PVR Q82K variant-CD4TM-GFP (human); test: flow cytometry; HEK-293T cells transfected with PVR Q82K variant-CD4TM-GFP; PE anti-human Fc
[11] = target: PVR Q82K+S72N double variant-CD4TM-GFP (human); test: flow cytometry; HEK-293T cells transfected with PVR Q82K+S72N double variant-CD4TM-GFP; PE anti-human Fc
PVR-CD4TM-GFP (human) [12] = test: flow cytometry; HEK-293T cells transfected with PVR-CD4TM-GFP; Fc fusion detected with PE anti-human Fc; PE against FITC (GFP)

Chain of CD226-Fc (Q15762 19-254): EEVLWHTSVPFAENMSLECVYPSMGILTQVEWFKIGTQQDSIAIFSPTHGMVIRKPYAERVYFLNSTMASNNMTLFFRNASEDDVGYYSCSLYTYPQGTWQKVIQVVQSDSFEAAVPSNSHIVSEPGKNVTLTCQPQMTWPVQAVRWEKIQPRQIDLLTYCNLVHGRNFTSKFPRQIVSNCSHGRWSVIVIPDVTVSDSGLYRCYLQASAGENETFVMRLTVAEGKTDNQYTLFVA

MFI (PVR-CD4TM-GFP (human) [1]) | MFI (PVR-CD4TM-GFP (human) [2]) | MFI [3] | MFI [4] | MFI [5] | MFI [6] | MFI [7] | MFI [8] | MFI [9] | MFI [10] | MFI [11] | MFI (PVR-CD4TM-GFP (human) [12]) | Substance
205 | 409 | 16.5 | 104 | 247 | 521 | 17.9 | 93.3 |  |  |  |  | CD226-Fc (from UniProt Q15762 19-254) (Fc fusion)
 |  |  |  |  |  |  |  | 530 | 605 | 795 | 389 | TIGIT-Fc (from UniProt Q495A1 22-141) (Fc fusion)
